# Reference: patent US20230257452A1 (GTINVENT, published 2023)
# Where no end group is shown, it is not given here. The star is where a group is joined. Biotin = O=C1N[C@H]2[C@H](CS[C@H]2CCCCC(=O)*)N1
# T1: N biotin 341-353 tau peptide (human)
# T1 peptide: Biotin-SEKLDFKDRVQSK
# Legend:
# Tau 1-319 = Tau 1-319 (human, UniProt P10636 1-636); assay: ELISA
# Source text: (§1) The plates were blocked with 2% MPBS and scAb samples added at desired starting concentrations and double diluted across the plate. Binding was detected using anti-Human C Kappa HRP conjugated secondary antibody and the resulting immunoreaction was developed and absorbance values measured as described above.
# [1] = biological target: T2, full length human tau protein (2N4R, isoform Tau-F, 441 amino acids) (human, UniProt P10636 1-758); assay: ELISA
# T2 construct: also called hT40; htau40
# T2 sequence (P10636 other isoform, or with tags, fused parts or gaps limits assumed): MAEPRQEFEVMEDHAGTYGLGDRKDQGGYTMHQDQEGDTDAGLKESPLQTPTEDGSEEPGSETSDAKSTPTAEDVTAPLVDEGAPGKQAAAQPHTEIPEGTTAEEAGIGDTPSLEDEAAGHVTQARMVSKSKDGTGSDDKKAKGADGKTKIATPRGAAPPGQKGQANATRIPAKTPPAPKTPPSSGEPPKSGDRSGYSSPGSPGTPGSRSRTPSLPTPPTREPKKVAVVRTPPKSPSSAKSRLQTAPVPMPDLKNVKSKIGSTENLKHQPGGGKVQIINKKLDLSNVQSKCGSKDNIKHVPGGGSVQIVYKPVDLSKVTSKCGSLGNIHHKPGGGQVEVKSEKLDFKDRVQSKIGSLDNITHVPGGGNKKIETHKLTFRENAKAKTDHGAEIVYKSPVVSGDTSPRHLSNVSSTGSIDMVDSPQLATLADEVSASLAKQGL
# Source text: as §1
# [2] = biological target: T2, full length human tau protein (2N4R, …); assay: ELISA, hT40 coated, scAb titrated
# dGAE aggregates = biological target: T3, dGAE aggregates (human, UniProt P10636 614-708, limits assumed); assay: sandwich ELISA, 423 mAb capture, aggregation sample titrated, scAb at 10 ug/ml as detector [cont) G-I]
# T3 construct: 100 µM dGAE aggregated with DTT at 37 °C, 700 rpm, 24 h; also called aggregated dGAE
# T3 sequence (P10636 614-708 limits assumed): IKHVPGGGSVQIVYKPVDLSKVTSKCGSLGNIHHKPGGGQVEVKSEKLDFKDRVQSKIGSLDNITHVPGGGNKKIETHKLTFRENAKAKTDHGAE
# Method: (§2) Following overnight agitation, one third of each sample was kept aside as ‘total’ and the rest was spun down at 16000×g for 30 min and separated into ‘supernatant’ and ‘pellet’. The pellet was then resuspended in half the original volume for further experiments. […] All double dilutions were done in final volumes of 100 μl. This was left to incubate on lab bench for 1 h followed by the addition of test scAbs at 10 μg/ml.
# dGA (tau 297-390) = dGA (tau 297-390) (human, UniProt P10636 614-707); assay: ELISA
# dGA (tau 297-390), sequence (P10636 614-707 limits assumed): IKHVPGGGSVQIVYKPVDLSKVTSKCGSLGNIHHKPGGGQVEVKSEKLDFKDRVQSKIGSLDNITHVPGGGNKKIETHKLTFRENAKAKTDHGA
# Source text: as §1
# dGAE (tau 297-391) [3] = biological target: T4, dGAE (tau 297-391) (human, UniProt P10636 614-708); assay: sandwich ELISA, 423 mAb capture, dGAE titrated, scAb at 10 ug/ml as detector [cont) G-I]
# T4 construct: also called dGAE95
# T4 sequence (P10636 614-708 limits assumed): as the sequence (P10636 614-708 limits assumed) above
# Method: as §2
# dGAE (tau 297-391) [4] = biological target: T4, dGAE (tau 297-391); assay: tau-tau immunoassay: scAb preincubated with 100 nM dGAE; blocked ligand: plate-bound dGA (1000 nM); bound dGAE detected with E2E8
# Method: The adapted method is as follows: dGA (1000 nM) was adsorbed to a Nunc 96-well MaxiSorp plate and incubated for 1 h at 37° C. Plates were subsequently washed 3 times with PBST which was performed after each 1 h incubation. The plates were blocked with 2% (w/v) dried milk powder in PBS for 1 h at 37° C. […] The secondary antibody used was HRP-conjugated Anti-mouse IgG (1:1000 dilution, Sigma) and incubated at RT for 1 h. The plate was subsequently developed, and readings taken at absorbance 450 nm.
# Tau 337-368 = Tau 337-368 (human); assay: ELISA, antigen coated, scAb titrated; panel title 337-368
# Tau 337-368 (human), sequence (chain, as listed by the source): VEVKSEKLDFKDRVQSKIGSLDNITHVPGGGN
# Source text: as §1
# [5] = biological target: T2, full length human tau protein (2N4R, …); assay: ELISA, hT40 coated, scAb titrated; remark: listed apart in the source
# [6] = biological target: T1, N biotin 341-353 tau peptide; assay: ELISA, biotinylated peptide on streptavidin, scAb titrated [B]
# Method: Briefly, 5 μg/ml streptavidin (Thermo Fisher) was adsorbed to Nunc 96-well MaxiSorp plates and following incubation at 37° C. for 1 h, the plates were washed as normal and blocked with 2% MPBS. […] Subsequently, test scAbs at starting concentrations of 100-500 nM was added and double diluted across the plate for each peptide and incubated for 1 h at 37° C. Rest of the ELISA was conducted as described above and the plates were read at absorbance 450 nm. Immunoreactivity of the scAb of interest was quantified as the % of scAb was bound for each peptide at a chosen concentration (FIG. 15-20).
# [7] = biological target: T5, mouse tau (isoform Tau-A) (mouse, UniProt P10637 2-733); assay: sandwich ELISA on mouse brain homogenates (incl. wild type), S1D12 mAb capture
# T5 construct: endogenous tau in mouse brain homogenate or plasma; also called endogenous mouse tau
# T5 sequence (P10637 other isoform, or with tags, fused parts or gaps limits assumed): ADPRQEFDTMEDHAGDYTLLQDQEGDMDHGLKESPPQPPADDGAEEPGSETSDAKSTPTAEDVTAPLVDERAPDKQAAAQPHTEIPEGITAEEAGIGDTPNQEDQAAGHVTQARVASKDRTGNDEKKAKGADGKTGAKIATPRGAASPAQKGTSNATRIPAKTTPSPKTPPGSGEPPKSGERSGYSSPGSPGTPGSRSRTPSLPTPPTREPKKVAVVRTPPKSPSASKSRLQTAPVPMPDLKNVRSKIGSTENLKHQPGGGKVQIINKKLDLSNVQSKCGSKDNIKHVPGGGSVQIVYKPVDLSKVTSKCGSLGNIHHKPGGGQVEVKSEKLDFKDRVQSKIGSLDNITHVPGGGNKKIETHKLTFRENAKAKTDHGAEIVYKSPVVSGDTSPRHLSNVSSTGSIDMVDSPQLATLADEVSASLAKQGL
# [8] = biological target: T2, full length human tau protein (2N4R, …); assay: sandwich ELISA, S1D12 mAb capture, hT40 titrated, detection scAb, chemiluminescent
# Method: (§3) Full length tau (hT40), at 1 μg/ml starting concentration was added to designated wells and double diluted across rest of the plates and left to incubate at R/T for 1 h. A series of detection scAbs with varying epitope recognition properties were added at 10 μg/ml to designated wells (FIG. 22). For colourimetric detection HRP conjugated anti-HuCk secondary antibody was used and the resulting immunoreaction was developed and absorbance at 450 nm measured as described previously. Cut-off point for a positive binding event was an absorbance value of 0.3 following background subtraction. In order to enhance the assay sensitivity, a chemiluminescent detection method was adopted where 50 μL SuperSignal ELISA Femto Substrate (Thermo Scientific) was added to each well following incubation with anti-HuCK HRP antibody and subsequent washing. The luminescence was read using Clariostar Plus microplate reader. A further modification to this protocol was done where various detection scAbs were directly conjugated with HRP and detected using chemiluminescent protocol as before.
# [9] = biological target: T2, full length human tau protein (2N4R, …); assay: sandwich ELISA, S1D12 mAb capture, hT40 titrated, detection scAb at 10 ug/ml, colourimetric
# Method: as §3
# Tau 1-319, sequence (P10636 other isoform, or with tags, fused parts or gaps): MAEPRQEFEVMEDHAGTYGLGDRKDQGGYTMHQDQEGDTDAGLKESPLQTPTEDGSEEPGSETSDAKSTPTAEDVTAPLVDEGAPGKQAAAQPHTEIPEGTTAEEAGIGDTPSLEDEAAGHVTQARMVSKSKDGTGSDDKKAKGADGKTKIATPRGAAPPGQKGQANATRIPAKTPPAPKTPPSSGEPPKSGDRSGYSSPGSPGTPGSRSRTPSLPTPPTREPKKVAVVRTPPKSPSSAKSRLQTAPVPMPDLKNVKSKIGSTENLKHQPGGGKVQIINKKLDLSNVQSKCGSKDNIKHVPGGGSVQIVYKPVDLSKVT
binder,measurement,setting,value
"CA7 scAb (scFv, V domains shown, tested as scAb (VH-linker-VL-HuCk-His in one chain)) VH: RVRLQGSGPSLVKPSQTLSLTCTVSGFSFDSYYVGWVRQAPGKALEWLGNIYSTGRAFYNPALKSRLSITRDTSKSQVSLSVSSVTIEDTALYYCVRGSYYHGGGNGMVDFFDYWSPGLLVTVSS VL: QVVRTQPSSVSGSLGQRVSITCSGSSSNVGYGNYVGWFQQVPGSAPKLLIYAATSRASGVPDRFSGSRSGNTATLTIDSLQAEDEADYYCSSYQRGNTGVFGSGTRLTVLG",binding result,Tau 1-319,binds
same,binding result,[1],binds
"CB3 scAb (scFv, not shown: human C kappa domain and hexa-His tag of the scAb format) scFv: QVQLQESGPSLVKPSQTLSLTCTVSGFSLSSVAVNWVRQAPGKVPEWLGGIISNGGTGYNPALKSRLSITRDTSKSQVSLALTHVTTEDTAVYYCGRGVEWEGSMDYLGPGLLVTVSSEGKSSGSGSETKVDDQSVLTQPSSVSGFLGQRVTITCSGSSSNVGAGSYVGWYQQVPGSGLRILIYGATKRASGLPDRFSGSRSGNTATLTISSLQAEDEADYYCVSYQTDFTLVFGSGTRLTVLG",binding result,[2],binds
same,binding result,dGAE aggregates,binds
same,binding result,dGA (tau 297-390),binds
same,binding result,dGAE (tau 297-391) [3],binds
"S1D12 scAb (scFv, not shown: human C kappa domain and hexa-His tag of the scAb format) scFv: QVQLQESGPSLVKPSQTLSLTCTVSGFSLNNNAVGWVRQAPGKVPESLVGCSSDGTCYYNSALKSRLDITRDTSKNQISLSLSSVTTDDAAVYYCTRGHYSIYGYDYLGTIDYWGPGLLVTVSSEGKSSGASGESKVDDQAVLTQPSSVSGSLGQRVSITCSGSSSNVGGGNSVGWYQHLPGSGLKTIIYDTNSRPSGVPDRFSGSRSGNTATLTINSLQAEDEGDYYCVTGDSTTHDDLVGSGTRLTVLG",B50,dGAE (tau 297-391) [4],80 nM
same,binding result,Tau 337-368,binds
same,EC50 (read off the curve),[5],~0.9 µg/mL
same,binding result,[6],binds
"S1G2 scAb (scFv, not shown: human C kappa domain and hexa-His tag of the scAb format) scFv: QVQLQESGPSLVKPSQTLSLTCTVSGFSLTSNSVGWVRQAPGKAPEWVAGIDTDGEEGYNPALNSRLSITRDTSKSQVSLSLSSVTSEDTAVYYCGRSYRADGLAYGYVQAIDYWGPGLLVTVSSEGKSSGASGESKVDDQAVVTQPSSVSGSLGQRVSITCSGSFIGISSVGWFQQLPGSGLRTIIVASDGRPSGVPDRFSMSKSGNTATLTISSLQAEDEADYFCGSSDRTPYTGVFGSGTRLTVLG",B50,dGAE (tau 297-391) [4],65 nM
same,binding result,[7],binds
same,LoD (ng/ml) chemiluminescence detection,[8],0.12 ng/mL
same,LoD (ng/ml) colourimetric detection,[9],2 ng/mL
